{
  "source": "paper PMC9979977",
  "target": "Borna disease virus 1 (BoDV-1) phosphoprotein (Borna disease virus 1)",
  "assay": "SEC-MALS; SEC-MALLS, Superdex 200 10/300, 20°C, 20 mM HEPES pH 7.5, 150 mM NaCl, 5%(v/v) glycerol; protein applied at 1-4 mg/ml; no concentration dependence of the oligomerization",
  "data": [
    {"substance": "Borna disease virus 1 (BoDV-1) phosphoprotein (natural protein)", "values": [
      {"measurement": "stoichiometry N", "result": 4}
    ]}
  ]
}
